What was measured:
PIV1051 = molecular target: T1, PIV1051 (PIV1); assay: BLI, no stress;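 note: binding of thermally stressed PIV1 F mutant supernatant to mAb on AHC biosensors for 5 min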
T1 construct: Q92C-G134C, A466V, S473V, A480V
Experimental: (§1) The OCTET HTX (Sartorius, Gottingen, Germany) instrument was used to evaluate the expression and conformational integrity for each mutant. All measurements were conducted at 30° C. temperature in 96-well black plates (Corning, Corning, NY) with a final volume of 240 μL per well at a constant agitation rate of 1000 RPM.
(§2) Conformation integrity of PIV1 F protein mutants were evaluated by a thermal stress experiment. Crude cell culture supernatants were normalized based on the results of the titer quantitation and then incubated for 1 hour at room temperature and two higher temperatures. For the initial testing of PIV1 mutants, the two temperatures were 50° C. and 53° C. […] Anti-Human IgG Fc Capture (AHC) biosensors were first equilibrated in PB for before being dipped into more PB to establish the initial baseline. […] The mAb-bound biosensors were then dipped into the thermal stresses cell culture supernatants for 5 minutes.

[1] = molecular target: T2, PIV1 F literature prefusion comparison (PIV1); assay: BLI, no stress;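 note: binding of thermally stressed PIV1 F mutant supernatant to mAb on AHC biosensors for 5 min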
T2 construct: F113G, F114S, A466I, S473I (Stewart-Jones et al. 2018)
Experimental: as §1, §2

PIV1067 = molecular target: T3, PIV1067 (PIV1); assay: BLI, no stress;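 note: binding of thermally stressed PIV1 F mutant supernatant to mAb on AHC biosensors for 5 min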
T3 construct: F113G, F114S, Q92C-G134C, A466I, S473I, A480I
Experimental: as §1, §2

PIV1047 = molecular target: T4, PIV1047 (PIV1); assay: BLI, no stress;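 note: binding of thermally stressed PIV1 F mutant supernatant to mAb on AHC biosensors for 5 min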
T4 construct: F113G, F114S, Q92C-G134C, A466L, S473L, A480L
Experimental: as §1, §2

PIV1048 = molecular target: T5, PIV1048 (PIV1); assay: BLI, no stress
T5 construct: Q92C-G134C, A466L, S473L, A480L
Experimental: as §1, §2

PIV1065 = molecular target: T6, PIV1065 (PIV1); assay: BLI, no stress
T6 construct: F113G, F114S, Q92C-G134C, A466I, S473I
Experimental: as §1, §2

PIV1066 = molecular target: T7, PIV1066 (PIV1); assay: BLI, no stress
T7 construct: A466I, S473I, A480L, Q92L, G134A
Experimental: as §1, §2

PIV1052 = molecular target: T8, PIV1052 (PIV1); assay: BLI, no stress
T8 construct: Q92C-G134C, A466V, S473V; also called PV1052
Experimental: as §1, §2

PIV1061 = molecular target: T9, PIV1061 (PIV1); assay: BLI, no stress
T9 construct: Q92L, G134A, A466L, S473L
Experimental: as §1, §2

PIV1063 = molecular target: T10, PIV1063 (PIV1); assay: BLI, no stress
T10 construct: A466L, S473L, A480L, Q92A, G134L
Experimental: as §1, §2

PIV1057 = molecular target: T11, PIV1057 (PIV1); assay: BLI, no stress
T11 construct: A466L, S473L, A480L, Q92A, G134A
Experimental: as §1, §2

PIV1053 = molecular target: T12, PIV1053 (PIV1); assay: BLI, no stress
T12 construct: F113G, F114S, A466L, S473L, A480L, G134A
Experimental: as §1, §2

PIV1054 = molecular target: T13, PIV1054 (PIV1); assay: BLI, no stress
T13 construct: A466L, S473L, A480L, G134A
Experimental: as §1, §2

PIV1064 = molecular target: T14, PIV1064 (PIV1); assay: BLI, no stress
T14 construct: F113G, F114S, Q92C-G134C, A466I, S473I, A480L
Experimental: as §1, §2

PIV1060 = molecular target: T15, PIV1060 (PIV1); assay: BLI, no stress
T15 construct: Q92L, G134A, A466L, S473L, A480L
Experimental: as §1, §2

PIV1068 = molecular target: T16, PIV1068 (PIV1); assay: BLI, no stress
T16 construct: A466I, S473I, A480I, Q92L, G134A
Experimental: as §1, §2

PIV1058 = molecular target: T17, PIV1058 (PIV1); assay: BLI, no stress
T17 construct: A466L, S473L, Q92A, G134A
Experimental: as §1, §2

PIV1050 = molecular target: T18, PIV1050 (PIV1); assay: BLI, no stress
T18 construct: F113G, F114S, Q92C-G134C, A466V, S473V, A480V
Experimental: as §1, §2

PIV1055 = molecular target: T19, PIV1055 (PIV1); assay: BLI, no stress
T19 construct: A466L, S473L, G134A
Experimental: as §1, §2

PIV1059 = molecular target: T20, PIV1059 (PIV1); assay: BLI, no stress
T20 construct: F113G, F114S, A466L, S473L, A480L, G134A, Q92L
Experimental: as §1, §2

PIV1062 = molecular target: T21, PIV1062 (PIV1); assay: BLI, no stress
T21 construct: F113G, F114S, A466L, S473L, A480L, Q92A, G134L
Experimental: as §1, §2

PIV1049 = molecular target: T22, PIV1049 (PIV1); assay: BLI, no stress
T22 construct: Q92C-G134C, A466L, S473L
Experimental: as §1, §2

PIV1056 = molecular target: T23, PIV1056 (PIV1); assay: BLI, no stress
T23 construct: F113G, F114S, A466L, S473L, A480L, Q92A, G134A
Experimental: as §1, §2

hMPV140 = molecular target: T24, hMPV140 (hMPV B, UniProt Q6WB98 19-102); assay: BLI, 63C stress
T24 construct: T49I, L141C-A161C, T411C-Q434C, A459P
Experimental: (§3) Conformation integrity of hMPV B F protein mutants were evaluated by a thermal stress experiment. Crude cell culture supernatants were normalized based on the results of the titer quantitation and then incubated for 1 hour at room temperature and two higher temperatures. For the testing of hMPV B single mutants, the two temperatures were 53° C. and 56° C. After the incubation, the protein mutants were probed with prefusion specific monoclonal antibody hMPV-2 by OCTET HTX. Anti-Human IgG Fc Capture (AHC) biosensors were first equilibrated in PB before being dipped into more PB for to establish the initial baseline. Biosensors were incubated with hMPV-2 before being equilibrated in PB to establish the experimental baseline. The mAb-bound biosensors were then dipped into the thermal stresses cell culture supernatants for 5 minutes.

hMPV135 = molecular target: T25, hMPV135 (hMPV B, UniProt Q6WB98 19-102); assay: BLI, 63C stress
T25 construct: T49I, S149T, A459P
Experimental: as §3

hMPV104 = molecular target: T26, hMPV104 (hMPV B, UniProt Q6WB98 19-102); assay: BLI, no stress
T26 construct: A459P
Experimental: (§4) All measurements were conducted at 30° C. temperature in 96-well black plates (Corning, Corning, NY) with a final volume of 240 μL per well at a constant agitation rate of 1000 RPM.
as §3

hMPV103 = molecular target: T27, hMPV103 (hMPV B, UniProt Q6WB98 19-102); assay: BLI, no stress
T27 construct: E146C-T160C
Experimental: as §4, §3

hMPV102 = molecular target: T28, hMPV102 (hMPV B, UniProt Q6WB98 19-102); assay: BLI, no stress
T28 construct: L141C-A161C
Experimental: as §4, §3

hMPV101 = molecular target: T29, hMPV101 (hMPV B, UniProt Q6WB98 19-102); assay: BLI, no stress
T29 construct: A140C-S149C
Experimental: as §4, §3

hMPV107 = molecular target: T30, hMPV107 (hMPV B, UniProt Q6WB98 19-102); assay: BLI, no stress
T30 construct: S149T
Experimental: as §4, §3

hMPV105 = molecular target: T31, hMPV105 (hMPV B, UniProt Q6WB98 19-102); assay: BLI, no stress
T31 construct: G239A
Experimental: as §4, §3

hMPV100 = molecular target: T32, hMPV100 (hMPV B, UniProt Q6WB98 19-102); assay: BLI, no stress
T32 construct: T411C-Q434C
Experimental: as §4, §3

hMPV108 = molecular target: T33, hMPV108 (hMPV B, UniProt Q6WB98 19-102); assay: BLI, no stress
T33 construct: T365I
Experimental: as §4, §3

hMPV106 = molecular target: T34, hMPV106 (hMPV B, UniProt Q6WB98 19-102); assay: BLI, no stress
T34 construct: T49I
Experimental: as §4, §3

hMPV B F WT Control = hMPV B F WT Control (hMPV B, UniProt Q6WB98 19-102); assay: BLI, no stress
Experimental: as §4, §3

B1: PIV1-8 mAb (antibody, V domains shown)
VH: QVQLVQSGAEVKKPGSSVKVSCEASGGTFSNYVISWVRQAPGQGLEWMGGIIPVFATAKYAQKFQGRVTIIADQSTNTAYLELSSLRSDDTAVYFCASVDSGGTWWDAFAIWGQGTMVTVSS
VL: QAVVTQPRSVSGSPGQAVTISCTGTSSDVGGYNYVSWYQHHPGKAPKLIIYDVTKRPSGVPDRFSGSKSGNTASLTISGLQTEYEADYYCCSYAGSYTLVFGGGTKLTVLG
notes: human IgG1; also called hPIV1-8 mAb; hPIV1-8
Response Shift (PIV1051): 0.725 nm | Response Shift [1]: 0.709 nm | Response Shift (PIV1067): 0.849 nm | Response Shift (PIV1047): 0.79 nm | Response Shift (PIV1048): 0.737 nm | Response Shift (PIV1065): 0.809 nm | Response Shift (PIV1066): 0.642 nm | Response Shift (PIV1052): 0.67 nm | Response Shift (PIV1061): 0.619 nm | Response Shift (PIV1063): -0.116 nm | Response Shift (PIV1057): 0.718 nm | Response Shift (PIV1053): 0.857 nm | Response Shift (PIV1054): 0.764 nm | Response Shift (PIV1064): 0.912 nm | Response Shift (PIV1060): 0.584 nm | Response Shift (PIV1068): 0.628 nm | Response Shift (PIV1058): 0.688 nm | Response Shift (PIV1050): 0.848 nm | Response Shift (PIV1055): 0.757 nm | Response Shift (PIV1059): 0.841 nm | Response Shift (PIV1062): 0.619 nm | Response Shift (PIV1049): 0.636 nm | Response Shift (PIV1056): 0.739 nm

B2: hMPV-2 mAb (antibody, V domains shown)
VH: QVQLQQSGAEVKKPGASVKVSCKASGYTFTSYGISWVRQAPGQGLEWMGWISGYNGNTNYAQTFQGTFTMTTDTSTSTAYMELRRLRSGDTAVYYCARDRYYASGSYNGMDVWGQGTTVTVSS
VL: QSALTQPPSASGAPGQRVTVSCSGSSSNVGSSSVYWYQQLPGTAPKLLIYRNNQRPSGVPDRFSGSKSGTSASLAISGLRSEDEADYYCAAWDDSLSGWVFGGGTKLTVLG
notes: human IgG1
Response Shift (hMPV140): 0.747 nm | Response Shift (hMPV135): -0.015 nm | Response Shift (hMPV104): 0.85 nm | Response Shift (hMPV103): 0.814 nm | Response Shift (hMPV102): 0.84 nm | Response Shift (hMPV101): 0.707 nm | Response Shift (hMPV107): 0.89 nm | Response Shift (hMPV105): 0.906 nm | Response Shift (hMPV100): 0.863 nm | Response Shift (hMPV108): 0.89 nm | Response Shift (hMPV106): 0.912 nm | Response Shift (hMPV B F WT Control): 0.867 nm
